From US20140154817A1 (WALTER AND ELIZA HALL INSTITUTE OF MEDICAL RESEARCH, published 2014)
Bridge positions count the residues as written; N and C are the ends. Ends that are not written are not given here. * marks the point of attachment. Biotin = O=C1N[C@H]2[C@H](CS[C@H]2CCCCC(=O)*)N1

B1: IR classical α-chain C-terminal peptide (residues 704-719) (peptide)
peptide: TFEDYLHNVVFVPRPS
notes: Mature IR-A numbering; also called IR αCT; IR-αCT
B2: S519 peptide (peptide)
peptide: SLEEEWAQVECEVYGRGCPSGSLDESFYDWFERQLG
modifications: disulfide 11-18 (inferred)
notes: 36-residue synthetic peptide, Activotec, >85% purity; also called insulin mimetic peptide S519
B3: IGF-1R classical α-chain C-terminal peptide (residues 691-706) (peptide)
peptide: VFENFLHNSIFVPRPE
notes: Mature IGF-1R numbering; also called IGF-1R αCT; IGF1R-αCT
B4: S519N20 peptide (peptide)
peptide: SLEEEWAQVECEVYGRGCPS
modifications: disulfide 11-18 (inferred)
notes: Synthetic peptide, AusPep, >90% purity; also called Site 2 peptide, the 20 N-terminal residues of S519
B5: N-terminally biotinylated IR αCT peptide 698-719, wild type (peptide)
peptide: Biotin-ESSFRKTFEDYLHNVVFVPRPS
notes: Genscript, >75% purity; also called wt; native peptide
B6: S519C16 peptide (peptide)
peptide: GSLDESFYDWFERQLG
notes: Synthetic peptide, AusPep, >90% purity; also called Site 1 peptide, the 16 C-terminal residues of S519
B7: IR485 pre-complexed with a 10-fold molar ratio of IGF-1R classical αCT peptide (other)
chain: HLYPGEVCPGMDIRNNLTRLHELENCSVIEGHLQILLMFKTRPEDFRDLSFPKLIMITDYLLLFRVYGLESLKDLFPNLTVIRGSRLFFNYALVIFEMVHLKELGLYNLMNITRGSVRIEKNNELCYLATIDWSRILDSVEDNHIVLNKDDNEECGDICPGTAKGKTNCPATVINGQFVERCWTHSHCQKVCPTICKSHGCTAEGLCCHSECLGNCSQPDDPTKCVACRNFYLDGRCVETCPPPYYHFQDWRCVNFSFCQDLHHKCKNSRRQGCHQYVIHNNKCIPECPSGYTMNSSNLLCTPCLGPCPKVCHLLEGEKTIDSVTSAQELRGCTVINGSLIINIRGGNNLAAELEANLGLIEEISGYLKIRRSYALVSLSFFRKLRLIRGETLEIGNYSFYALDNQNLRQLWDWSKHNLTTTQGKLFFHYNPKLCLSEIHKMEEVSGTKGRQERNDIALKTNGDKASCENELLKFSYIRTSFDKISDDDDKEQKLISEEDLN
peptide: VFENFLHNSIFVPRPE
notes: Non-covalent receptor fragment and peptide mixture in the ITC cell; also called IR485 + (10 × IGF1R-αCT)
B8: IR485 construct of human insulin receptor (receptor)
chain: B7 chain
notes: The tag was not removed for ITC; Expressed in Lec8 mutant CHO cells; also called insulin mini-receptor IR485; first three domains of IR (L1-CR-L2)
B9: IR485 pre-complexed with a 10-fold molar ratio of IR classical αCT peptide (other)
chain: B7 chain
peptide: TFEDYLHNVVFVPRPS
notes: Non-covalent receptor fragment and peptide mixture in the ITC cell; also called IR485 + (10 × IR-αCT)

Columns and labels:
[1] = target: B8; assay: ITC, 25 °C, peptide titrated into IR485, single-site fit, mean of three
Experimental: (§1) ITC experiments were performed using a VP-ITC isothermal titration calorimeter (MicroCal Inc., USA) with the calorimeter cell held at 25° C. All samples were degassed prior to injection or placement into the cell, and the instrument was temperature equilibrated prior to the start of the injections. In all experiments the volume of sample placed in the cell was 1.4 ml and the titrant was injected in 7 μl volumes over 14 s at 3 min intervals, with the total number of injections being 40. The sample contents were stirred at a speed of 310 rpm over the duration of the titration. […] Data were analyzed using the instrument's software incorporated within the Origin 7 software (OriginLab, USA) and in all cases fitted as a single-site interaction using the methodologies outlined in the instrument's manual.

[2] = target: T1, Zinc-free porcine insulin (porcine, UniProt P01315 88-108; P01315 25-54); assay: ITC, 25 °C, IR αCT peptide 200 µM titrated into ZFP-insulin 20 µM
T1 construct: mature; Made zinc-free by dialysis against 0.1% acetic acid and lyophilisation; also called ZFP-insulin
Experimental: as §1

[3] = target: B8; assay: ITC, 25 °C, peptide titrated into IR485
[4] = target: T2, Human IGF-I (human, UniProt P05019 49-118); assay: ITC, 25 °C, IGF-1R αCT peptide 200 µM titrated into IGF-I 20 µM
T2 construct: mature
Experimental: as §1

[5] = target: B8; assay: ITC, 25 °C, S519N20 50 µM titrated into IR485 5 µM
Experimental: as §1

[6] = target: B8; assay: ITC, about 25 °C, peptide titrated into IR485
Experimental: (§2) The insulin mini-receptor IR485 construct was produced and purified as previously described (Lou et al., 2006), omitting the final ion-exchange chromatography step. Isothermal titration calorimetry (ITC) experiments were performed using a VP-ITC isothermal titration calorimeter (MicroCal Inc., USA) with the calorimeter cell held at about 25° C. The ITC cell contained insulin mini-receptor IR485 prepared at about 10 μM concentration in Tris-buffered saline plus azide (TBSA; about 24.8 mM Tris-HCl (pH 8.0), 137 mM NaCl, 2.7 mM KCl, and 0.02% sodium azide), and the syringe contained the peptide prepared at about 60 μM concentration in TBSA. All samples were degassed prior to injection or placement into the cell, and the instrument was temperature equilibrated prior to the start of the injections.
(§3) In all experiments the volume of the insulin mini-receptor IR485 sample placed in the cell was about 1.4 ml and the titrant was injected in about 7 μl volumes over 14 s at 3 min intervals, with the total number of injections being 40. The sample contents were stirred at a speed of about 310 rpm over the duration of the titration. All titrants were first injected into a solution of TBSA alone in order ascertain the heat of dilution, which was then subtracted from the data of interest as appropriate. Each experiment was performed three times, except for that employing the native peptide, which was performed twice. Data were analyzed using the instrument's software incorporated within the Origin 7 software (OriginLab, USA) and in all cases fitted as a single-site interaction using the methodologies outlined in the instrument's manual.

[7] = target: B8; assay: ITC, about 25 °C, peptide about 60 µM titrated into IR485 about 10 µM
Experimental: as §2, §3

[8] = target: B8; assay: ITC, mutant αCT peptides 698-719 titrated into IR485
Experimental: as §2
as §3, with “All titrants were first injected into a solution of TBSA alone in order ascertain the heat of dilution, which was then subtracted from the data of interest as appropriate. Each experiment was performed three times, except for that employing the native peptide, which was performed twice.” left out

[9] = target: B8; assay: ITC, 25 °C, S519C16 titrated into IR485 pre-mixed with a 10-fold molar ratio of IR αCT peptide (competitor); apparent Kd; IR485 in the presence of a 10-fold molar ratio of IR αCT peptide
Experimental: as §1

[10] = target: B8; assay: ITC, 25 °C, S519C16 titrated into IR485 pre-mixed with a 10-fold molar ratio of IR αCT peptide (competitor)
Experimental: as §1

[11] = target: T2, Human IGF-I; assay: ITC, 25 °C, IGF-I titrated into IR485 pre-mixed with 10-fold IGF-1R αCT peptide
Experimental: as §1

[12] = target: T1, Zinc-free porcine insulin; assay: ITC, 25 °C, hormone titrated into IR485 pre-mixed with 10-fold IGF-1R αCT peptide
Experimental: as §1

[13] = target: T1, Zinc-free porcine insulin; assay: ITC, 25 °C, ZFP-insulin 50 µM titrated into IR485 5 µM
Experimental: as §1

[14] = target: T2, Human IGF-I; assay: ITC, 25 °C, IGF-I 100 µM titrated into IR485 10 µM
Experimental: as §1

[15] = target: T1, Zinc-free porcine insulin; assay: ITC, 25 °C, hormone titrated into IR485 pre-mixed with 10-fold IR αCT peptide
Experimental: as §1

[16] = target: T2, Human IGF-I; assay: ITC, 25 °C, IGF-I titrated into IR485 pre-mixed with 10-fold IR αCT peptide
Experimental: as §1

T1 sequence (P01315 88-108 limits assumed, chain 1 of 2): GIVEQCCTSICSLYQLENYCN
T1 sequence (P01315 25-54 limits assumed, chain 2 of 2): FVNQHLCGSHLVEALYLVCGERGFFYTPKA

| Binder | TΔS° [6] | ΔG° [6] | ΔH° [6] | Kd [7] | other results |
| --- | --- | --- | --- | --- | --- |
| B1 |  |  |  |  | Kd [1]: 3.9 µM; Kd [2]: > 1000 µM |
| TFEDYLHNVVAVPRPS (also called IR αCT.714A; IR-αCT.714A) [F714A mutant of the IR classical αCT peptide] |  |  |  |  | Kd [1]: 6.5 µM |
| B2 |  |  |  |  | -TΔS^0 [3]: 5.74 kcal/mol; Kd [3]: 0.011 µM; ΔH^0 [3]: -16.5 kcal/mol |
| B3 |  |  |  |  | Kd [1]: 17.6 µM; Kd [4]: > 1000 µM |
| B4 |  |  |  |  | Kd [5]: > 1000 µM |
| B5 | -3.35 kcal/mol | -8.01 kcal/mol | -11.5 kcal/mol | 1.34 µM |  |
| Biotin-ESSFYKTFEDYLHNVVFVPRPS [N-terminally biotinylated IR αCT peptide 698-719, R702Y] | -2.87 kcal/mol | -9 kcal/mol | -12 kcal/mol | 0.249 µM |  |
| Biotin-ESSFYKWFEDYLHNVVFVPRPS [N-terminally biotinylated IR αCT peptide 698-719, R702Y/T704W] | -1.2 kcal/mol | -10.6 kcal/mol | -11.7 kcal/mol | 0.018 µM | fold increase in affinity against the wild type peptide [8]: ≤ 100 fold |
| Biotin-ESSFRKYFEDYLHNVVFVPRPS [N-terminally biotinylated IR αCT peptide 698-719, T704Y] | -2.63 kcal/mol | -8.37 kcal/mol | -11 kcal/mol | 0.74 µM |  |
| Biotin-ESSFWKTFEDYLHNVVFVPRPS [N-terminally biotinylated IR αCT peptide 698-719, R702W] | -0.717 kcal/mol | -8.89 kcal/mol | -8.37 kcal/mol | 0.309 µM |  |
| Biotin-ESSFRKWFEDYLHNVVFVPRPS [N-terminally biotinylated IR αCT peptide 698-719, T704W] | 2.63 kcal/mol | -9.13 kcal/mol | -6.21 kcal/mol | 0.201 µM |  |
| B6 |  |  |  |  | -TΔS^0 [3]: 2.87 kcal/mol; Kd [3]: 0.0026 µM; ΔH^0 [3]: -14.6 kcal/mol; Kd [9]: 0.016 µM; -TΔS^0 [10]: -2.63 kcal/mol; ΔH^0 [10]: -7.89 kcal/mol |
| B7 |  |  |  |  | Kd [11]: 0.022 µM; Kd [12]: 0.0057 µM |
| B8 |  |  |  |  | Kd [13]: > 1000 µM; Kd [14]: > 1000 µM |
| B9 |  |  |  |  | Kd [15]: 0.017 µM; Kd [16]: 0.49 µM |
